According to PMC3556581 (Nature structural & molecular biology, 2009):

How the values were obtained:
[1] = biological target: parental cyclophilin A (CypA) (rhesus macaque; identical in sequence …, UniProt P62940 1-165); assay: ITC
[2] = biological target: CypA domain of rhesus macaque TRIMCyp (RhTC CypA) (rhesus macaque, UniProt P62940 1-165, D66N | R69H); assay: ITC

B1: HIV-2 N-terminal capsid (CA^N) domain (domain or fragment)
chain: not shown
Kd [1]: 91 µM | Kd [2]: 3 µM | dH [2]: -4.84 kJ/mol
